Test results as given in patent publication US20200057048A1 (published 2020).

Target: T1, human islet-specific glucose-6-phosphatase catalytic subunit-related protein (IGRP) peptide on HLA-DRA*01:01 … (human)
T1 peptide: QHLQKDYRAYYTF
Test: multimer staining
Experimental: Three million transduced and sorted GP+envAm12 were plated per well of a 6 well plate in a final volume of 3 ml. Next day 100,000 JURMA-hCD4 were co-cultured with the pre-plated transduced GP+envAm12 in a final volume of 3 ml supplemented with 8 ug/ml of polybrene. This co-culture was maintained during two weeks changing the media every 2 or 3 days. After co-culture, JURMA-hCD4 cells were harvested analyzed by flow cytometry and sorted for high transgene expression. Cells were then stained with PE labeled heterodimers.

B1: IGRP13-25 TCR (TCR, V domains shown)
Valpha: DQQVKQNSPSLSVQEGRISILNCDYTNSMFDYFLWYKKYPAEGPTFLISISSIKDKNEDGRFTVFLNKSAKHLSLHIVPSQPGDSAVYFCAATNSGGSNYKLTFGKGTLLTVNP
Vbeta: DGGITQSPKYLFRKEGQNVTLSCEQNLNHDAMYWYRQDPGQGLRLIYYSQIVNDFQKGDIAEGYSVSREKKESFPLTVTSAQKNPTAFYLCASGGRVYQPQHFGDGTRLSIL
binding result: recognises
